In EP0636174B1, “HYALURONAN RECEPTOR (RHAMM = RECEPTOR FOR HYLURONAN MEDIATED MOBILITY) AND HYALURONAN BINDING PEPTIDES” (UNIVERSITY OF MANITOBA, priority 1992, dated 1993):

How the values were obtained:
[1] = target: T1, GST-RHAMM fusion protein (Mus musculus, UniProt Q00547); assay: Competition by peptides with binding of biotin-labelled HA to transblotted GST-RHAMM fusion protein; conditions: biotin-labelled HA pre-incubated for 1 h with 3 mg/ml peptide; Figure 13A
T1 construct: A complete RHAMM cDNA (1.43 kb) was expressed as a fusion protein with pGEX-2T in E. coli HB101; made in house; host or cells: E. coli HB101 (pGEX-2T)
T1 sequence (Q00547 319-794): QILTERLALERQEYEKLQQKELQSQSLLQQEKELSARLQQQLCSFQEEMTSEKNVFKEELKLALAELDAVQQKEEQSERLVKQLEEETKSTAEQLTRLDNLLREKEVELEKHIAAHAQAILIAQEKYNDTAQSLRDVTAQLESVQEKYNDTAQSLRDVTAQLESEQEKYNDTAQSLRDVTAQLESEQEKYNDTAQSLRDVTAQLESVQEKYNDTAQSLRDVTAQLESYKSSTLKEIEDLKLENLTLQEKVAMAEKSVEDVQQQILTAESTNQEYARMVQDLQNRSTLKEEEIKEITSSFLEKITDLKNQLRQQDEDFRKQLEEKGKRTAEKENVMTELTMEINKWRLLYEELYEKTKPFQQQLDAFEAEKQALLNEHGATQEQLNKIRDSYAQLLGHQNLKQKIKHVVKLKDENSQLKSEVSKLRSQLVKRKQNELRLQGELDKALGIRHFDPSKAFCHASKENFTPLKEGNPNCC
Procedure: Transblotted RHAMM fusion protein was stained with a 1:10,000 dilution of biotin-labelled HA that had been pre-incubated for 1 h with 3 mg/ml BSA (Figure 13A, lane 1) , 3 mg/ml peptide^aa401-411 (lane 2) or 3 mg/ml peptide^aa423-432 (lane 3).
GST-RHAMM fusion protein was electrophoresed on 10% SDS-PAGE and transblotted onto a nitrocellulose membrane. The membrane was cut into 3 strips and each was stained with 1:3000 diluted biotin-labelled HA in the presence of 3 mg/ml BSA, 3 mg/ml peptide^aa401-411 and 3 mg/ml peptide^aa423-432, respectively. The other steps were the same as described in immunoblots.

[2] = Hyaluronan-Sepharose affinity chromatography of peptides; type: binding; conditions: 0.15 M NaCl in PBS; Figure 13B
Procedure: To further test the inventor's HA-binding motif model, a number of synthetic peptides were prepared and their HA-binding ability was determined using HA-sepharose. A tyrosine residue was added to one end of each synthetic peptide for convenient spectrophotometric quantitation.
HA-Sepharose affinity gel was prepared according to the manufacturer's instruction. […]
Hyaluronan (Sigma) was coupled to AH-Sepharose 4B (Pharmacia) according to the manufacturer's instructions, resulting in an HA-Sepharose gel. Peptides, ordered from Coast Scientific (San Diego) were HPLC purified. These and randomized peptides, whose sequence was generated by computer, were applied to HA-Sepharose in the presence of 0.15 M NaCl in PBS buffer. Unbound peptides were removed by extensive washing with the same buffer. The amounts of peptides applied and that removed were determined by measuring optical density (O.D.) at 214 nm.

blocking of the binding of biotin-labelled HA to expressed GST-RHAMM fusion protein [1]: blocked | binding to HA-Sepharose [2]: efficiently bound
Substance: K^423L R S Q L V K R K^432 (KLKSQLVKRK) [peptide^aa423-432]
